# System: Escherichia coli TOP10
# Test: shrunken log2 fold change of peptide-encoding DNA abundance (4.5 h post-induction vs induction); higher = less antimicrobial activity (less host growth inhibition)
# Conditions: time post-induction: 4.5 h; library: site-saturation at positions 5, 18, 19, 20
# 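Note: peptides expressed intracellularly from a pBAD plasmid library in pooled LB shake-flask culture, induced with 0.3% L-arabinose, DNA abundance read by NGS, three biological replicates, DESeq2 with apeglm shrinkage.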
sequence,measurement,value
RRIRCRPPRLPRPRPRPTNEPRP,shrunken log2 fold change,-0.213
RRIRIRPPRLPRPRPRPTEPPRP,shrunken log2 fold change,0.0374
RRIRLRPPRLPRPRPRPLKFPRP,shrunken log2 fold change,-0.57
RRIRGRPPRLPRPRPRPGCQPRP,shrunken log2 fold change,1.17
RRIRRRPPRLPRPRPRPALQPRP,shrunken log2 fold change,1.92
RRIRFRPPRLPRPRPRPVINPRP,shrunken log2 fold change,-0.816
RRIRVRPPRLPRPRPRPKCEPRP,shrunken log2 fold change,0.0936
RRIRLRPPRLPRPRPRPCQIPRP,shrunken log2 fold change,-0.102
RRIRARPPRLPRPRPRPDTNPRP,shrunken log2 fold change,-0.0188
RRIRVRPPRLPRPRPRPVEPPRP,shrunken log2 fold change,0.218
RRIRPRPPRLPRPRPRPLRYPRP,shrunken log2 fold change,0.17
RRIRYRPPRLPRPRPRPNLIPRP,shrunken log2 fold change,-0.438
RRIRKRPPRLPRPRPRPSVNPRP,shrunken log2 fold change,-0.0205
RRIRWRPPRLPRPRPRPHEDPRP,shrunken log2 fold change,0.185
RRIRKRPPRLPRPRPRPCYSPRP,shrunken log2 fold change,-0.178
RRIRSRPPRLPRPRPRPNLYPRP,shrunken log2 fold change,-0.167
RRIRMRPPRLPRPRPRPFQNPRP,shrunken log2 fold change,2.76
RRIRLRPPRLPRPRPRPHTGPRP,shrunken log2 fold change,-0.158
RRIRLRPPRLPRPRPRPQPQPRP,shrunken log2 fold change,0.396
RRIRKRPPRLPRPRPRPTQEPRP,shrunken log2 fold change,0.294
RRIRNRPPRLPRPRPRPSGAPRP,shrunken log2 fold change,-0.0216
RRIRPRPPRLPRPRPRPQCKPRP,shrunken log2 fold change,-0.398
RRIRWRPPRLPRPRPRPRNGPRP,shrunken log2 fold change,0.401
RRIRNRPPRLPRPRPRPSRMPRP,shrunken log2 fold change,-0.454
RRIRVRPPRLPRPRPRPACLPRP,shrunken log2 fold change,-0.444
RRIRGRPPRLPRPRPRPKDMPRP,shrunken log2 fold change,0.213
RRIRARPPRLPRPRPRPNGGPRP,shrunken log2 fold change,-0.01
RRIRFRPPRLPRPRPRPQTDPRP,shrunken log2 fold change,-0.21
RRIRCRPPRLPRPRPRPWDQPRP,shrunken log2 fold change,0.0182
RRIRRRPPRLPRPRPRPHSLPRP,shrunken log2 fold change,-0.113
RRIRERPPRLPRPRPRPHWDPRP,shrunken log2 fold change,-0.00134
RRIRWRPPRLPRPRPRPTHCPRP,shrunken log2 fold change,0.213
RRIRCRPPRLPRPRPRPFSMPRP,shrunken log2 fold change,-0.107
RRIRWRPPRLPRPRPRPFGQPRP,shrunken log2 fold change,-0.0338
RRIRIRPPRLPRPRPRPEMQPRP,shrunken log2 fold change,0.128
RRIRDRPPRLPRPRPRPPWEPRP,shrunken log2 fold change,0.0453
RRIRARPPRLPRPRPRPKFGPRP,shrunken log2 fold change,0.581
RRIRLRPPRLPRPRPRPVWLPRP,shrunken log2 fold change,0.242
RRIRNRPPRLPRPRPRPTFGPRP,shrunken log2 fold change,-0.084
RRIRVRPPRLPRPRPRPEERPRP,shrunken log2 fold change,-0.194
RRIRDRPPRLPRPRPRPHKSPRP,shrunken log2 fold change,-0.17
RRIRERPPRLPRPRPRPRVTPRP,shrunken log2 fold change,0.107
RRIRERPPRLPRPRPRPFPRPRP,shrunken log2 fold change,0.087
RRIRFRPPRLPRPRPRPGDFPRP,shrunken log2 fold change,-0.209
RRIRVRPPRLPRPRPRPFVWPRP,shrunken log2 fold change,-0.03
RRIRERPPRLPRPRPRPIFHPRP,shrunken log2 fold change,-0.395
RRIRARPPRLPRPRPRPFYNPRP,shrunken log2 fold change,-0.44
RRIRNRPPRLPRPRPRPLVPPRP,shrunken log2 fold change,-0.213
RRIRCRPPRLPRPRPRPEYKPRP,shrunken log2 fold change,-0.415
RRIRMRPPRLPRPRPRPSMKPRP,shrunken log2 fold change,0.0872
RRIRCRPPRLPRPRPRPEGFPRP,shrunken log2 fold change,0.0977
RRIRDRPPRLPRPRPRPVFLPRP,shrunken log2 fold change,-0.208
RRIRGRPPRLPRPRPRPSRMPRP,shrunken log2 fold change,0.22
RRIRKRPPRLPRPRPRPHIVPRP,shrunken log2 fold change,-0.0154
RRIRMRPPRLPRPRPRPAAGPRP,shrunken log2 fold change,1.56
RRIRTRPPRLPRPRPRPGGNPRP,shrunken log2 fold change,-0.264
RRIRSRPPRLPRPRPRPNPPPRP,shrunken log2 fold change,-0.222
RRIRWRPPRLPRPRPRPVYDPRP,shrunken log2 fold change,-0.15
RRIRIRPPRLPRPRPRPKAYPRP,shrunken log2 fold change,-0.124
RRIRVRPPRLPRPRPRPNPVPRP,shrunken log2 fold change,-0.242
RRIRMRPPRLPRPRPRPSFKPRP,shrunken log2 fold change,-0.0765
RRIRFRPPRLPRPRPRPWQEPRP,shrunken log2 fold change,-0.2
RRIRCRPPRLPRPRPRPRLSPRP,shrunken log2 fold change,0.0865
RRIRFRPPRLPRPRPRPRHTPRP,shrunken log2 fold change,-0.00169
RRIRLRPPRLPRPRPRPNWAPRP,shrunken log2 fold change,-0.00149
RRIRERPPRLPRPRPRPAPHPRP,shrunken log2 fold change,0.704
RRIRRRPPRLPRPRPRPCTPPRP,shrunken log2 fold change,-0.0236
RRIRFRPPRLPRPRPRPARGPRP,shrunken log2 fold change,0.624
RRIRSRPPRLPRPRPRPPQAPRP,shrunken log2 fold change,0.768
RRIRSRPPRLPRPRPRPPEKPRP,shrunken log2 fold change,0.797
RRIRSRPPRLPRPRPRPYHTPRP,shrunken log2 fold change,-0.652
RRIRCRPPRLPRPRPRPKTTPRP,shrunken log2 fold change,-0.000868
RRIRNRPPRLPRPRPRPECAPRP,shrunken log2 fold change,0.00267
RRIRRRPPRLPRPRPRPVYLPRP,shrunken log2 fold change,-0.173
RRIRHRPPRLPRPRPRPMEDPRP,shrunken log2 fold change,0.0325
RRIRCRPPRLPRPRPRPMACPRP,shrunken log2 fold change,0.00876
RRIRGRPPRLPRPRPRPWDVPRP,shrunken log2 fold change,-0.00788
RRIRYRPPRLPRPRPRPWNHPRP,shrunken log2 fold change,-0.00776
RRIRMRPPRLPRPRPRPHNTPRP,shrunken log2 fold change,-0.168
RRIRFRPPRLPRPRPRPNVRPRP,shrunken log2 fold change,0.0987
RRIRMRPPRLPRPRPRPWRAPRP,shrunken log2 fold change,0.595
RRIRCRPPRLPRPRPRPHFSPRP,shrunken log2 fold change,-0.473
RRIRFRPPRLPRPRPRPLAGPRP,shrunken log2 fold change,-0.104
RRIRNRPPRLPRPRPRPWVFPRP,shrunken log2 fold change,-0.221
RRIRRRPPRLPRPRPRPDMDPRP,shrunken log2 fold change,-0.108
RRIRSRPPRLPRPRPRPYYGPRP,shrunken log2 fold change,-0.197
RRIRNRPPRLPRPRPRPSYCPRP,shrunken log2 fold change,-0.267
RRIRERPPRLPRPRPRPFIDPRP,shrunken log2 fold change,-0.288
RRIRSRPPRLPRPRPRPSDEPRP,shrunken log2 fold change,-0.673
RRIRWRPPRLPRPRPRPFLVPRP,shrunken log2 fold change,-0.293
RRIRWRPPRLPRPRPRPSNPPRP,shrunken log2 fold change,-0.218
RRIRARPPRLPRPRPRPSGKPRP,shrunken log2 fold change,-0.0838
RRIRTRPPRLPRPRPRPWNWPRP,shrunken log2 fold change,0.0309
RRIRPRPPRLPRPRPRPMCIPRP,shrunken log2 fold change,-0.0687
RRIRFRPPRLPRPRPRPLFCPRP,shrunken log2 fold change,-0.462
RRIRHRPPRLPRPRPRPMWNPRP,shrunken log2 fold change,-0.0721
RRIRPRPPRLPRPRPRPMYHPRP,shrunken log2 fold change,-0.35
RRIRIRPPRLPRPRPRPGRTPRP,shrunken log2 fold change,0.0928
RRIRHRPPRLPRPRPRPDDCPRP,shrunken log2 fold change,-0.00674
RRIRYRPPRLPRPRPRPLCDPRP,shrunken log2 fold change,-0.12
RRIRRRPPRLPRPRPRPLGKPRP,shrunken log2 fold change,-0.017
RRIRIRPPRLPRPRPRPVKNPRP,shrunken log2 fold change,-0.765
RRIRTRPPRLPRPRPRPQQNPRP,shrunken log2 fold change,-0.0459
RRIRIRPPRLPRPRPRPSPCPRP,shrunken log2 fold change,-0.761
RRIRIRPPRLPRPRPRPHQLPRP,shrunken log2 fold change,-0.52
RRIRLRPPRLPRPRPRPSYAPRP,shrunken log2 fold change,-0.134
RRIRERPPRLPRPRPRPSFCPRP,shrunken log2 fold change,-0.593
RRIRIRPPRLPRPRPRPCTTPRP,shrunken log2 fold change,-0.543
RRIRERPPRLPRPRPRPKPEPRP,shrunken log2 fold change,0.12
RRIRHRPPRLPRPRPRPICGPRP,shrunken log2 fold change,0.00743
RRIRQRPPRLPRPRPRPGQNPRP,shrunken log2 fold change,-0.223
RRIRNRPPRLPRPRPRPDQQPRP,shrunken log2 fold change,-0.0806
RRIRERPPRLPRPRPRPCLYPRP,shrunken log2 fold change,-0.489
RRIRYRPPRLPRPRPRPRCAPRP,shrunken log2 fold change,-0.199
RRIRPRPPRLPRPRPRPVSCPRP,shrunken log2 fold change,-0.095
RRIRFRPPRLPRPRPRPAPVPRP,shrunken log2 fold change,0.323
RRIRWRPPRLPRPRPRPPMFPRP,shrunken log2 fold change,-0.00833
RRIRTRPPRLPRPRPRPNHSPRP,shrunken log2 fold change,-0.925
RRIRCRPPRLPRPRPRPMMWPRP,shrunken log2 fold change,-0.137
RRIRFRPPRLPRPRPRPGHDPRP,shrunken log2 fold change,0.062
RRIRCRPPRLPRPRPRPILQPRP,shrunken log2 fold change,-0.0117
RRIRLRPPRLPRPRPRPIWRPRP,shrunken log2 fold change,0.102
RRIRQRPPRLPRPRPRPAADPRP,shrunken log2 fold change,0.0593
RRIRMRPPRLPRPRPRPSNSPRP,shrunken log2 fold change,-0.192
RRIRGRPPRLPRPRPRPTTYPRP,shrunken log2 fold change,0.214
